Several values for one entry are separate records, joined by “and”; a condition that tells them apart may be missing. Equal values may be shown once.
Molecular target: Sox6 HMG domain (human) (UniProt P35712)
Test: UV laser footprinting
Details: 10 mM Tris pH 7.4, 75 mM NaCl, 1 mM EDTA, 1 mM DTT, BSA (100 mg/mL [sic]), 0.01% NP40, 5% glycerol, 37 C, 50 nM DNA or nucleosome (Kdapp is not true Kd) …

Sequence of Sox6 HMG domain (human) (P35712 618-697): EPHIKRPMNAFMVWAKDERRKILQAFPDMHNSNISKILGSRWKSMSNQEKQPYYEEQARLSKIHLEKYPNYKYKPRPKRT

Row | Sequence | K half | further results
1 | GCATGATTCTTAAGACCGAGTTCATCCCTTATGTGATGGACCCTATACGCGGCCGCCATCAGAATCCCGGTGCCGAGGCCGCTCAATTGGTCGTAGACAGCTCTAGCACCGCTTAAACGCACGTACGCGCTGTCCCCCGCGTTTTAACCGCCAAGGGGATTACTCCGGACAATGGAGGCACGTGTCAGATATATACATCGATGTGCATGTATTGAACAGCGACCTTGCCGGTGCCAGTCGGATAGAATTCCGGAC (double strand) [601-SHL4 naked DNA] | 180 nM | 
2 | GCATGATTCTTAAGACCGAGTTCATCCCTTATGTGATGGACCCTATACGCGGCCGCCATCAGAATCCCGGTGCCGAGGCCGCTCAATTGGTCGTAGACAGCTCTAGCACCGCTTAAACGCACGTACGCGCTGTCCCCCGCGTTTTAACCGCCAAGGGGATTACTCCGGACAATGGAGGCACGTGTCAGATATATACATCGATGTGCATGTATTGAACAGCGACCTTGCCGGTGCCAGTCGGATAGAATTCCGGAC (double strand) [601-SHL4 nucleosome] |  | K half (apparent Kd, SHL4 site): 490 nM
3 | GCATGATTCTTAAGACCGAGTTCATCCCTTATGTGATGGACCCTATACGCGGCCGCCATCAGAATCCCGGTGCCGAGGCCGCTCAATTGGTCGTAGACAGCTCTAGCACCGCTTAAACGCACGTACGCGCTGTCCCCCGCGTTTTGGACAATGGAGGCATTACTCCCTAGTCTCCAGGCACGTGTCAGATATATACATCGATGTGCATGTATTGAACAGCGACCTTGCCGGTGCCAGTCGGATAGAATTCCGGAC (double strand) [601-SHL2 naked DNA] | 136 nM | 
4 | GCATGATTCTTAAGACCGAGTTCATCCCTTATGTGATGGACCCTATACGCGGCCGCCATCAGAATCCCGGTGCCGAGGCCGCTCAATTGGTCGTAGACAGCTCTAGCACCGCTTAAACGCACGTACGCGCTGTCCCCCGCGTTTTGGACAATGGAGGCATTACTCCCTAGTCTCCAGGCACGTGTCAGATATATACATCGATGTGCATGTATTGAACAGCGACCTTGCCGGTGCCAGTCGGATAGAATTCCGGAC (double strand) [601-SHL2 nucleosome] |  | K half (apparent Kd, SHL2 site): 374 nM
5 | GCATGATTCTTAAGACCGAGTTCATCCCTTATGTGATGGACCCTATACGCGGCCGCCATCAGAATCCCGGTGCCGAGGCCGCTCAATTGGTCGTAGACAGCTCTAGCACCGCTTAAACGCACGTAGGACAATGGAGGCGCGTTTTAACCGCCAAGGGGATTACTCCCTAGTCTCCAGGCACGTGTCAGATATATACATCGATGTGCATGTATTGAACAGCGACCTTGCCGGTGCCAGTCGGATAGAATTCCGGAC (double strand) [601-SHL0 naked DNA] | 100 nM | 
6 | GCATGATTCTTAAGACCGAGTTCATCCCTTATGTGATGGACCCTATACGCGGCCGCCATCAGAATCCCGGTGCCGAGGCCGCTCAATTGGTCGTAGACAGCTCTAGCACCGCTTAAACGCACGTAGGACAATGGAGGCGCGTTTTGGACAATGGAGGCATTACTCCGGACAATGGAGGCACGTGTCAGATATATACATCGATGTGCATGTATTGAACAGCGACCTTGCCGGTGCCAGTCGGATAGAATTCCGGAC (double strand) [601-SHL024 naked DNA] | 198 nM and 275 nM and 245 nM | 
7 | GCATGATTCTTAAGACCGAGTTCATCCCTTATGTGATGGACCCTATACGCGGCCGCCATCAGAATCCCGGTGCCGAGGCCGCTCAATTGGTCGTAGACAGCTCTAGCACCGCTTAAACGCACGTAGGACAATGGAGGCGCGTTTTGGACAATGGAGGCATTACTCCGGACAATGGAGGCACGTGTCAGATATATACATCGATGTGCATGTATTGAACAGCGACCTTGCCGGTGCCAGTCGGATAGAATTCCGGAC (double strand) [601-SHL024 nucleosome] |  | K half (apparent Kd, SHL2 site of 3x): 550 nM; K half (apparent Kd, SHL4 site of 3x): 680 nM

Reference: paper PMC10302475
